Reference: patent US9844546B2, “Antibody against human HIF hydroxylase” (OXFORD UNIVERSITY INNOVATION LIMITED, priority 2001, dated 2017)
Entries after “also recorded” stand apart in the source; their conditions may differ.

Molecular target: T1, HIF-1α/pVHL interaction (Homo sapiens, UniProt P40337)
T1 construct: made in house; host or cells: TNT rabbit reticulocyte lysate (Promega), in vitro transcription/translation
Assay: Polypeptide blocking assay of HIF-1α and pVHL.HA IVTT mixture, anti-HA immunoprecipitation
Format: binding
Protocol: Further studies were performed using synthetic polypeptides as inhibitors of the HIF-1α/pVHL interaction (23). […] Results for a series of polypeptides derived from this domain are summarized in FIG. 1B and implicate a similar minimal interaction domain. […] This polypeptide comprises HIF-1α polypeptide residues 556 to 574 and its ability to block binding following exposure to a variety of direct oxidation conditions was assessed.
We synthesized a polypeptide (HIF-1α residues 556-574), containing a trans-4-hydroxy-S-proline residue at position 564 (19:Pro564Hyp), since the trans-4-hydroxylation is the commonest enzymatic proline oxidation (25). A polypeptide blocking assay was carried out using the 19:Pro564Hyp modified polypeptide and, as a control, the unmodified polypeptide without the trans-4-hydroxylation (19:WT). The 19:WT polypeptide was either incubated with cell extract before the binding assay or was untreated. The 19:Pro564Hyp polypeptide was added to a mixture of HIF-1α and pVHL-HA IVTTs at a concentration of 1, 0.25, 0.05 or 0.01 μM and the cell extract treated or untreated 19:WT polypeptide at a concentration of 0.5 μM. Interaction of HIF-1α with pVHL was then assayed by anti-HA immunoprecipitation. […] A pVHL capture assay was then carried out using biotinylated synthetic polypeptides. The same polypeptides, 19:Pro564Hyp and 19:WT were assessed for the ability to capture wild type or mutant (Pro86His) pVHL. […] In both cases capture was specific for wild type, as opposed to mutant, pVHL.
• 1. G. L. Semenza, Genes Dev 14, 1983-91. (2000). • 2. N. V. Iyer, et al., Genes Dev. 12, 149-162 (1997). • 3. E. Maltepe, J. V. Schmidt, D. Baunoch, C. A. Bradfield, M. C. Simon, Nature 386, 403-407 (1997). • 4. G. L. Wang, B.-H. Jiang, E. A. Rue, G. L. Semenza, Proc. Natl. Acad. Sci. USA 92, 5510-5514 (1995). • 5. S. Salceda, J. Caro, J. Biol. Chem. 272, 22642-22647 (1997). • 6. L. E. Huang, J. Gu, M. Schau, H. F. Bunn, Proc. Natl. Acad. Sci. USA 95, 7987-7992 (1998). • 7. M. S. Wiesener, et al., Blood 92, 2260-2268 (1998). • 8. P. H. Maxwell, et al., Nature 399, 271-275 (1999). • 9. K. Iwai, et al., Proc. Natl. Acad. Sci. USA 96, 12436-12441 (1999). • 10. J. Lisztwan, G. Imbert, C. Wirbelauer, M. Gstaiger, W. Krek, Genes Dev 13, 1822-33 (1999). • 11. M. E. Cockman, et al., J Biol Chem (2000). • 12. M. Ohh, et al., Nat Cell Biol 2, 423-7. (2000). • 13. T. Kamura, et al., Proc Natl Acad Sci USA 97, 10430-5. (2000). • 14. K. Tanimoto, Y. Makino, T. Pereira, L. Poellinger, Embo J 19, 4298-309. (2000). • 15. M. A. Goldberg, S. P. Dunning, H. F. Bunn, Science 242, 1412-1415 (1988). • 16. G. L. Wang, G. L. Semenza, Blood 82, 3610-3615 (1993). • 17. G. L. Semenza, Cell 98, 281-284 (1999). • 18. Hypoxia (<0.1% oxygen) was obtained in a workstation with O2, CO2 and temperature control (Ruskinn Technologies, Leeds, UK). For hypoxic harvest, buffers were preincubated in the chamber overnight. RCC4-VHL.HA, labelling conditions and co-immunoprecipitation assays have been described previously (11); in the current study 12.5 μM MG132 was used for proteasomal inhibition. For standard harvest, the cells were removed from the chamber after hypoxic exposure, prior to cell lysis. Co-immunoprecipitation assays on all lysates were performed at 4° C. under ambient oxygen conditions. […] When programming in hypoxia, reaction mix was preincubated in the workstation for 10 minutes before addition of the DNA template. […]

T1 sequence (P40337 whole entry): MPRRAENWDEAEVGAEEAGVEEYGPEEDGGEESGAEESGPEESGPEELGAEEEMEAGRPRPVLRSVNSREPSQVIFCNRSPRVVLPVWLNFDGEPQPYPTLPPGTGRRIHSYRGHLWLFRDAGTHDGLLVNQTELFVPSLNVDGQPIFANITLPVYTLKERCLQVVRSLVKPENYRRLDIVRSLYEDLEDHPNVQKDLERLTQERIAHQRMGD

Substance	blocking of HIF-1α/pVHL interaction by polypeptide not exposed to cell extract (untreated polypeptide)	blocking of HIF-1α/pVHL interaction by polypeptide after exposure to cell extract (cell extract supplemented with Fe(II))
19:Pro564Hyp: polypeptide (HIF-1α residues 556-574) containing a trans-4-hydroxy-S-proline residue at position 564	highly effective at inhibiting the HIF-1α/pVHL interaction; also recorded: blocked the HIF-1α/pVHL interaction without the need for exposure to cell extract	–
19:WT: polypeptide comprising HIF-1α residues 556 to 574	–	blocking activity
